The record followed here is article PMC5559459, “Disruption of the structural and functional features of surfactant protein A by acrolein in cigarette smoke” (Scientific Reports, 2017).

First the molecules themselves.
B1: acrolein (10 µM)-modified recombinant human SP-A (natural protein)
chain: not shown
modifications: acrolein adducts (acrolein-lysine adducts, aldehyde adducts, modified free thiols); the sites were not mapped at this 2:1 ratio
notes: pulmonary surfactant protein A, human SP-A1 cDNA expressed and secreted by CHO-K1 cells; Chemically modified form of m1; heterogeneous adducts; also called acrolein (10 μM)-modified SP-A; hSP-A pre-incubated with 10 µM acrolein; source: CHO-K1 cells, purified (mannose-Sepharose); 5 µM hSP-A incubated with 10 µM acrolein in 5 mM Tris-HCl pH 7.4 at 37 °C for 4 h, then dialyzed
B2: cigarette smoke extract (CSE)-modified recombinant human SP-A (natural protein)
chain: not shown
modifications: adducts from cigarette smoke extract (acrolein-lysine adducts, aldehyde adducts, modified free thiols); sites not mapped
notes: pulmonary surfactant protein A, human SP-A1 cDNA expressed and secreted by CHO-K1 cells; Chemically modified form of m1; heterogeneous adducts; also called CSE-modified SP-A; hSP-A pre-incubated with CSE; source: CHO-K1 cells, purified (mannose-Sepharose); 5 µM hSP-A incubated with 10% CSE in 5 mM Tris-HCl pH 7.4 at 37 °C for 4 h, then dialyzed
B3: acrolein (100 µM)-modified recombinant human SP-A (natural protein)
chain: not shown
modifications: acrolein adducts; at a 20:1 molar ratio of acrolein to SP-A six modified residues were identified: His39, His116, Cys155, Lys180, Lys221, Cys224
notes: pulmonary surfactant protein A, human SP-A1 cDNA expressed and secreted by CHO-K1 cells; Chemically modified form of m1; the sites were mapped by MS on a sample of 25 µM hSP-A with 500 µM acrolein (same 20:1 ratio); also called acrolein (100 μM)-modified SP-A; hSP-A pre-incubated with 100 µM acrolein; source: CHO-K1 cells, purified (mannose-Sepharose); 5 µM hSP-A incubated with 100 µM acrolein in …

The target in this assay is T1, recombinant human TLR4 (hTLR4) (human, UniProt O00206 24-631).
T1 construct: Toll-like receptor 4, human, recombinant; No catalogue number is printed; the bought protein is probably a soluble extracellular construct with a tag (surmise); source: bought: Sino Biological Inc
T1 sequence (O00206 24-631): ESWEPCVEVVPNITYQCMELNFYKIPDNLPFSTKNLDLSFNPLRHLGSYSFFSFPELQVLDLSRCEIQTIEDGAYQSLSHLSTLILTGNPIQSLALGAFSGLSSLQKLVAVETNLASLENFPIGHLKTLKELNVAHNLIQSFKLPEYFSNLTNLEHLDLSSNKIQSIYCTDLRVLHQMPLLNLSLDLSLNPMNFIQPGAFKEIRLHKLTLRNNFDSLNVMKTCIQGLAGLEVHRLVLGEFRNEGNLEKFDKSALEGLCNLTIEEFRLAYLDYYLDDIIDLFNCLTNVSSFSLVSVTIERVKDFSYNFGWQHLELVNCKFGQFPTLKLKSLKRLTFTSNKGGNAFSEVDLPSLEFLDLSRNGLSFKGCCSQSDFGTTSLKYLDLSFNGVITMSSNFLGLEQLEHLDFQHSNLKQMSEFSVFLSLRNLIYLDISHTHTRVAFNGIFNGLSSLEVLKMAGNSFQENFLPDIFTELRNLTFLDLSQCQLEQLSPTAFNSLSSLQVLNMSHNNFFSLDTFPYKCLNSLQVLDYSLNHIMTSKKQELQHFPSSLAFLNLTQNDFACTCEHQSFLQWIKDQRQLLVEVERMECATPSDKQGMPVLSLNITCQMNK
The assay is described as follows: ELISA; 500 ng hTLR4 coated on 96-well plates; 5 μg SP-A in 10 mM HEPES pH 7.4, 0.15 M NaCl, 5 mM CaCl2, 2% fatty acid-free BSA, 37 °C, 5 h; detected with anti-human SP-A polyclonal antibody and HRP anti-rabbit IgG; background (vehicle) subtracted. The conditions noted are these: both partners purified. For orientation: An ELISA detects its analyte on a solid surface through an enzyme-linked reagent.
Take B1: the “percent decrease of binding against unmodified hSP-A” value (“percent decrease of binding” below) is 77.1%.
On to B2, for which the “percent decrease of binding” value turned out to be 71.9%.
For the molecule B3, the “percent decrease of binding” value was found to be 72.6%.
